From article PMC8205236, “Quantitative Profiling of WNT-3A Binding to All Human Frizzled Paralogues in HEK293 Cells by NanoBiT/BRET Assessments” (ACS Pharmacology & Translational Science, 2021) come the findings set out here.

Sequences and labels used below:
T1: HiBiT-tagged human FZD4 (human, UniProt Q9ULV1 37-537)
T1 construct: the receptor's own signal peptide is probably replaced; also called HiBiT-FZD4; WT FZD4; source: HEK293A, transiently transfected, on live cells; not shown: HiBiT, N-terminal, kept
T1 sequence (looked up): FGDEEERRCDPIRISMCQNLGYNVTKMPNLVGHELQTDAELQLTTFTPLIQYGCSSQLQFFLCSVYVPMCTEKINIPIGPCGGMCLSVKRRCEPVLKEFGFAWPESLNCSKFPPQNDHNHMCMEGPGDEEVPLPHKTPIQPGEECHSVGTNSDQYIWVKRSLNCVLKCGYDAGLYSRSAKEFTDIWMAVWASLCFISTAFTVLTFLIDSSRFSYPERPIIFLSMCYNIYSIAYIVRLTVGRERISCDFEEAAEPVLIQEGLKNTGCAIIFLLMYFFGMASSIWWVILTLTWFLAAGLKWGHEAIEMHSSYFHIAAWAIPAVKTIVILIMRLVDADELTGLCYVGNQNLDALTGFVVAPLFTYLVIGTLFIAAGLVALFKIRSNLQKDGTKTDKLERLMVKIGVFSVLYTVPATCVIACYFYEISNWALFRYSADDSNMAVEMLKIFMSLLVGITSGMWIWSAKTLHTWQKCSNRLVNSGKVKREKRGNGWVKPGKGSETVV

B1: FZD4-CD86 chimeric protein (HiBiT-tagged) (receptor)
chain: FGDEEERRCDPIRISMCQNLGYNVTKMPNLVGHELQTDAELQLTTFTPLIQYGCSSQLQFFLCSVYVPMCTEKINIPIGPCGGMCLSVKRRCEPVLKEFGFAWPESLNCSKFPPQNDHNHMCMEGPGDEEVPLPHKTPIQPGEECHSVGTNSDQYIWVKRSLNCVLKCGYDAGLYS
B2: FZD8-CD86 chimeric protein (HiBiT-tagged) (receptor)
chain: ASAKELACQEITVPLCKGIGYNYTYMPNQFNHDTQDEAGLEVHQFWPLVEIQCSPDLKFFLCSMYTPICLEDYKKPLPPCRSVCERAKAGCAPLMRQYGFAWPDRMRCDRLPEQGNPDTLCMDYNRTDLTTAAPSPPRRLPPPPPGEQPPSGSGHGRPPGARPPHRGGGRGGGGGDAAAPPARGGGGGGKARPPGGGAAPCEPGCQCRAPMVSVSSERHPLYNRVKTGQIANCALPCHNPFFSQDERA
B3: FZD6-FZD4 chimeric protein (receptor)
chain: HSLFTCEPITVPRCMKMAYNMTFFPNLMGHYDQSIAAVEMEHFLPLANLECSPNIETFLCKAFVPTCIEQIHVVPPCRKLCEKVYSDCKKLIDTFGIRWPEELECDRLQYCDETVPVTFDPHTEFLGPQKKTEQVQRDIGFWCPRHLKTSGGQGYKFLGIDQCAPPCPNMYFKSDELEFAKSFMAVWASLCFISTAFTVLTFLIDSSRFSYPERPIIFLSMCYNIYSIAYIVRLTVGRERISCDFEEAAEPVLIQEGLKNTGCAIIFLLMYFFGMASSIWWVILTLTWFLAAGLKWGHEAIEMHSSYFHIAAWAIPAVKTIVILIMRLVDADELTGLCYVGNQNLDALTGFVVAPLFTYLVIGTLFIAAGLVALFKIRSNLQKDGTKTDKLERLMVKIGVFSVLYTVPATCVIACYFYEISNWALFRYSADDSNMAVEMLKIFMSLLVGITSGMWIWSAKTLHTWQKCSNRLVNSGKVKREKRGNGWVKPGKGSETVV
B4: FZD4-FZD6 chimeric protein (receptor)
chain: FGDEEERRCDPIRISMCQNLGYNVTKMPNLVGHELQTDAELQLTTFTPLIQYGCSSQLQFFLCSVYVPMCTEKINIPIGPCGGMCLSVKRRCEPVLKEFGFAWPESLNCSKFPPQNDHNHMCMEGPGDEEVPLPHKTPIQPGEECHSVGTNSDQYIWVKRSLNCVLKCGYDAGLYSIGTVSIFCLCATLFTFLTFLIDVRRFRYPERPIIYYSVCYSIVSLMYFIGFLLGDSTACNKADEKLELGDTVVLGSQNKACTVLFMLLYFFTMAGTVWWVILTITWFLAAGRKWSCEAIEQKAVWFHAVAWGTPGFLTVMLLAMNKVEGDNISGVCFVGLYDLDASRYFVLLPLCLCVFVGLSLLLAGIISLNHVRQVIQHDGRNQEKLKKFMIRIGVFSGLYLVPLVTLLGCYVYEQVNRITWEITWVSDHCRQYHIPCPYQAKAKARPELALFMIKYLMTLIVGISAVFWVGSKKTCTEWAGFFKRNRKRDPISESRRVLQESCEFFLKHNSKVKHKKKHYKPSSHKLKVISKSMGTSTGATANHGTSAVAITSHDYLGQETLTEIQTSPETSMREVKADGASTPRLREQDCGEPASPAASISRLSGEQVDGKGQAGSVSESARSEGRISPKSDITDTGLAQSNNLQVPSSSEPSSLKGSTSLLVHPVSGVRKEQGGGCHSDT
B5: FZD4-FZD8 chimeric protein (receptor)
chain: FGDEEERRCDPIRISMCQNLGYNVTKMPNLVGHELQTDAELQLTTFTPLIQYGCSSQLQFFLCSVYVPMCTEKINIPIGPCGGMCLSVKRRCEPVLKEFGFAWPESLNCSKFPPQNDHNHMCMEGPGDEEVPLPHKTPIQPGEECHSVGTNSDQYIWVKRSLNCVLKCGYDAGLYSFTVFWIGLWSVLCFVSTFATVSTFLIDMERFKYPERPIIFLSACYLFVSVGYLVRLVAGHEKVACSGGAPGAGGAGGAGGAAAGAGAAGAGAGGPGGRGEYEELGAVEQHVRYETTGPALCTVVFLLVYFFGMASSIWWVILSLTWFLAAGMKWGNEAIAGYSQYFHLAAWLVPSVKSIAVLALSSVDGDPVAGICYVGNQSLDNLRGFVLAPLVIYLFIGTMFLLAGFVSLFRIRSVIKQQDGPTKTHKLEKLMIRLGLFTVLYTVPAAVVVACLFYEQHNRPRWEATHNCPCLRDLQPDQARRPDYAVFMLKYFMCLVVGITSGVWVWSGKTLESWRSLCTRCCWASKGAAVGGGAGATAAGGGGGPGGGGGGGPGGGGGPGGGGGSLYSDVSTGLTWRSGTASSVSYPKQMPLSQV
B6: untagged human WNT-3A (ligand, UniProt P56704 19-352, looked up)
chain: SYPIWWSLAVGPQYSSLGSQPILCASIPGLVPKQLRFCRNYVEIMPSVAEGIKIGIQECQHQFRGRRWNCTTVHDSLAIFGPVLDKATRESAFVHAIASAGVAFAVTRSCAEGTAAICGCSSRHQGSPGKGWKWGGCSEDIEFGGMVSREFADARENRPDARSAMNRHNNEAGRQAIASHMHLKCKCHGLSGSCEVKTCWWSQPDFRAIGDFLKDKYDSASEMVVEKHRESRGWVETLRPRYTYFKVPTERDLVYYEASPNFCEPNPETGSFGTRDRTCNVSSHGIDGCDLLCCGRGHNARAERRREKCRCVFHWCCYVSCQECTRVYDVHTCK
notes: WNT-3A, human, untagged recombinant protein; source: bought: RnD Systems/Biotechne, purified
B7: untagged human WNT-11 (ligand, UniProt O96014 25-354, looked up)
chain: IKWLALSKTPSALALNQTQHCKQLEGLVSAQVQLCRSNLELMHTVVHAAREVMKACRRAFADMRWNCSSIELAPNYLLDLERGTRESAFVYALSAAAISHAIARACTSGDLPGCSCGPVPGEPPGPGNRWGGCADNLSYGLLMGAKFSDAPMKVKKTGSQANKLMRLHNSEVGRQALRASLEMKCKCHGVSGSCSIRTCWKGLQELQDVAADLKTRYLSATKVVHRPMGTRKHLVPKDLDIRPVKDSELVYLQSSPDFCMKNEKVGSHGTQDRQCNKTSNGSDSCDLMCCGRGYNPYTDRVVERCHCKYHWCCYVTCRRCERTVERYVCK
notes: WNT-11, human, untagged recombinant protein; source: bought: RnD Systems/Biotechne, purified
B8: untagged human WNT-10B (ligand)
chain: not shown
notes: WNT-10B, human, untagged recombinant protein; source: bought: RnD Systems/Biotechne, purified
B9: untagged human/mouse WNT-5A (ligand, UniProt P41221 62-380, looked up)
chain: IIGAQPLCSQLAGLSQGQKKLCHLYQDHMQYIGEGAKTGIKECQYQFRHRRWNCSTVDNTSVFGRVMQIGSRETAFTYAVSAAGVVNAMSRACREGELSTCGCSRAARPKDLPRDWLWGGCGDNIDYGYRFAKEFVDARERERIHAKGSYESARILMNLHNNEAGRRTVYNLADVACKCHGVSGSCSLKTCWLQLADFRKVGDALKEKYDSAAAMRLNSRGKLVQVNSRFNSPTTQDLVYIDPSPDYCVRNESTGSLGTQGRLCNKTSEGMDGCELMCCGRGYDQFKTVQTERCHCKFHWCCYVKCKKCTEIVDQFVCK
notes: WNT-5A, printed as human/mouse, untagged recombinant protein; human WNT-5A is P41221; source: bought: RnD Systems/Biotechne, purified
B10: untagged human WNT-5B (ligand, UniProt Q9H1J7 18-359, looked up)
chain: QLLTDANSWWSLALNPVQRPEMFIIGAQPVCSQLPGLSPGQRKLCQLYQEHMAYIGEGAKTGIKECQHQFRQRRWNCSTADNASVFGRVMQIGSRETAFTHAVSAAGVVNAISRACREGELSTCGCSRTARPKDLPRDWLWGGCGDNVEYGYRFAKEFVDAREREKNFAKGSEEQGRVLMNLQNNEAGRRAVYKMADVACKCHGVSGSCSLKTCWLQLAEFRKVGDRLKEKYDSAAAMRVTRKGRLELVNSRFTQPTPEDLVYVDPSPDYCLRNESTGSLGTQGRLCNKTSEGMDGCELMCCGRGYNQFKSVQVERCHCKFHWCCFVRCKKCTEIVDQYICK
notes: WNT-5B, human, untagged recombinant protein; source: bought: RnD Systems/Biotechne, purified

In one experiment the target is T2, eGFP-tagged mouse WNT-3A (mouse, UniProt P27467 19-352).
T2 construct: WNT-3A, mouse, eGFP-tagged, secreted into conditioned medium; Co-expressed with His-Afamin, which may accompany the WNT in the medium; Two batches (16.7 nM and 16.2 nM); also called eGFP-WNT-3A; eGFP-Wnt-3A; source: HEK293F suspension cells, cotransfected with pCS2+-eGFP-WNT-3A and pCMV-His-Afamin; conditioned medium, concentrated 5-fold and medium-exchanged (not purified)
The experiment can be described thus: FRET or BRET; NanoBiT/BRET saturation binding on live HEK293A cells (setup 1): eGFP-WNT-3A conditioned medium 16.7 pM to 16.7 nM, 5% FBS, 10 mM HEPES, 240 min at 37 °C, then LgBiT and furimazine for 10 min; one-site specific model (normalised logarithmic fits for pKd). The settings on record: partners not purified. (In BRET a luciferase serves as donor, and the signal depends on an acceptor being close.)
The molecule B1 displayed a Kd of 142 nM.
Turning to B2, binding was characterised by a dissociation constant (Kd) of 22.9 nM.
Same read-out and setting: with B3 the figure was 5.8 nM.
Same read-out and setting: with B4 the figure was 3.5 nM; with B5, 2.9 nM.

In the next experiment the target is T1, HiBiT-tagged human FZD4. The experiment can be described thus: FRET or BRET; NanoBiT/BRET competition binding on live HEK293A cells with HiBiT-FZD4: 30 min preincubation with purified untagged WNT at 37 °C, then eGFP-WNT-3A to 0.4 nM for 240 min, then LgBiT and furimazine; pKi by Cheng-Prusoff. The note with it: one partner purified.
B6: the “0.4 nM eGFP-WNT-3A binding displaced (%)” value was found to be 40.8%, the pKi was determined as 7.26 and the ΔBRET is -0.002.
On the same counts, the results for B7 are 58.4%, 8.9 and -0.001.
Regarding B8, the “0.4 nM eGFP-WNT-3A binding displaced (%)” value is 34.5%, the pKi came out at 7.87 and the ΔBRET was -0.001.
On the same counts, the results for B9 are 78.4%, 7.08 and -0.004.
On to B10, for which the “0.4 nM eGFP-WNT-3A binding displaced (%)” value amounted to 78.3%, the pKi was determined as 6.93 and the ΔBRET was -0.004.

By Kd is commonly meant a measure of binding affinity in units of concentration. Low values mean tighter binding, high ones weaker binding. In general, pKi refers to −log10 of the Ki, conventionally taken in molar units. Lower therefore signals a high Ki.
